# Data: US20090123489A1 (IMMATICS BIOTECHNOLOGIES, published 2009)
# Target: HLA-A*0201 (recombinant heavy chain with beta-2 microglobulin) (human)
# Test: ELISA-based HLA refolding assay
# Method: Stable HLA/peptide complexes consist of three molecules: HLA heavy chain, beta-2 microglobulin (b2m) and the peptidic ligand. […] The availability of these molecules is used in an ELISA-based assay to measure the affinity of interaction between peptide and HLA class I molecule (Sylvester-Hvid et al., 2002).
# The amount of de novo-folded HLA/peptide complexes was determined by a quantitative ELISA. Dissociation constants (KD values) were calculated using a standard curve recorded from dilutions of a calibrant HLA/peptide complex.
row,Binder,binding result
1,SLWAGVVVL [CHI-001],binds
2,KVFAGIPTV [PTP-005],binds
3,FLYKVILSL [PTP-002],binds
4,AIIDGVESV [PTP-003],binds

# Continued, values first:
row,binding result,Binder
1,binds,ALTTLMHQL (9-mer from PTPRZ1) [PTP-001]
2,binds,FLLPDTDGL [PTP-004]

# Target: T1, HLA-A*0205 (human)
# T1 construct: whole, on cells; Native HLA precipitated from tumor tissue
# Test: peptide eluted from HLA precipitated from glioblastoma tissue, identified by ESI-LCMS
row,binding result,Binder
1,binds,ALTTLMHQL (9-mer from PTPRZ1) [PTP-001]
